Results on two molecules are retold here after patent USRE50631E1, “ROR1 antibody immunoconjugates” (VelosBio Inc., priority 2017, dated 2025).

In one series the target is T1, ROR1 on Jeko-1 cells (Homo sapiens, UniProt Q01973).
T1 construct: The Jeko-1 cell line, from mantle cell lymphoma, is a suspension cell line; host or cells: Jeko-1 (human mantle cell lymphoma)
The experiment in a line: Binding to ROR1-positive Jeko-1 cells (flow cytometry receptor binding assay). As to conditions: 20 minutes on ice, PE secondary antibody. How it is done:
The binding to tumor cells by antibodies Ab1 and 4A5, as well as ADC constructs derived from those antibodies (ADC-A and ADC-T), was evaluated. First, the binding of Ab1 to two ROR1-positive human tumor cell lines representing different cancer types was tested. The Jeko-1 cell line, from mantle cell lymphoma, is a suspension cell line, while the MDA-MB-231 cell line, from triple negative breast cancer, is an adherent cell line. The cell lines have different levels of ROR1 expression, with Jeko-1 cells displaying about 13507 cell surface copies and the MDA-MB-231 cells displaying about 21015 cell surface copies. The Jeko-1 (ATCC Cat. No. CRL-3006) and MDA-MB-231 (ATCC Cat. No. […]) cell lines were purchased from the American Type Culture Collection and were maintained according to the ATCC recommendations.
Jeko-1 cells (FIG. 2A) or MDA-MB-231 cells (FIG. 2B) were incubated with 0, 1, 10, 100, or 1000 ng/mL of Ab1 for 20 minutes on ice. After washing off unbound antibody, the cells were incubated with secondary anti-human IgG antibody labeled with phycoerythrin (PE) for an additional 20 minutes. The amount of PE fluorescence was measured using the BDFACS Verse analyzer and FlowJo V10 software. The PE signal for the highest concentration was used as the maximal binding signal to calculate the % maximal binding. EC50 was calculated using GraphPad Prism 7. […]

For a further series, the system named is Mino. Nature of the series: Cytotoxicity in vitro (CellTiter-Glo viability), Mino. As to conditions: Mino (MCL), 72 hours. Format: cell-based, human.
The next series relates to Jeko-1 MCL xenograft. Nature of the series: Jeko-1 human MCL xenograft model (study 7). Format: in vivo, mouse. As to conditions: 1 mg/kg ADC-N, ADC-P, ADC-R; 5 mg/kg ADC-A, ADC-L, ADC-M, ADC-S, ADC-T; IV Q4D. How it is done: Jeko-1 (MCL) cells were engrafted subcutaneously into mice. When tumor size reached 100 mm^3, the mice were randomized into nine groups, 9 mice/group. The groups were vehicle control; 1 mg/kg ADC-N, ADC-P or ADC-R; or 5 mg/kg ADC-A, ADC-L, ADC-M, ADC-S, or ADC-T. The mice were dosed IV q4d.

T1 sequence (Q01973 30-937): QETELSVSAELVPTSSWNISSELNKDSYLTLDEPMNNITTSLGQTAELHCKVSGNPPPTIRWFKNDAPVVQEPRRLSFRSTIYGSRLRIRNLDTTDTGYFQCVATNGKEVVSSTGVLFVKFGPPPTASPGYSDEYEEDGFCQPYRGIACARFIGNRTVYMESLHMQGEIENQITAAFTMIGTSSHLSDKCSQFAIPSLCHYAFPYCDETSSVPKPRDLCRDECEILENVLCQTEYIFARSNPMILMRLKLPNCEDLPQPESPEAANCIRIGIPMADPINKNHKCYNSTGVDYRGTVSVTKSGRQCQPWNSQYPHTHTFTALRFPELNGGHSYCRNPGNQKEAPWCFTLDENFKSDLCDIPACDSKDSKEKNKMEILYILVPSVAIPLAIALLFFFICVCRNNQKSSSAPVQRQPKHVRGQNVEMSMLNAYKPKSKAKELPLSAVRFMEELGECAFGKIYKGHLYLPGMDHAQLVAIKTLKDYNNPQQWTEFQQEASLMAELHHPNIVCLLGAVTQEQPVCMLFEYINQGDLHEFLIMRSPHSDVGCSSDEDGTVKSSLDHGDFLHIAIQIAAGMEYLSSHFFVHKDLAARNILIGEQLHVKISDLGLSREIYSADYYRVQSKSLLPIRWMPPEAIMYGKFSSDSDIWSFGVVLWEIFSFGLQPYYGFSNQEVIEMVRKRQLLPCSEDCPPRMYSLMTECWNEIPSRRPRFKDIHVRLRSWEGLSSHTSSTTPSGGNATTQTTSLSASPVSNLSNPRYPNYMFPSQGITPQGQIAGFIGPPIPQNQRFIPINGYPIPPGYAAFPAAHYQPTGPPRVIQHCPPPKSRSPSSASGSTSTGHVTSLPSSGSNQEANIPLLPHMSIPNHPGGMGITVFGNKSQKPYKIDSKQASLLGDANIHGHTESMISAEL
Experimental for Mino: Cells were cultured in log phase growth and distributed into 96-well plates. Each cell line was plated at a slightly different cell density, ranging from 5×10^3 to 50×10^4 cells/well. Cells in duplicate were incubated with 3-fold serial dilution of a particular immunoconjugate (10, 3.33, 1.11, 0.37, 0.12, 0.041, 0.014, and 0.0045 μM) for 72 hours at 37° C. and 5% CO2. After treatment, cells were incubated with an equal volume of CellTiter-Glo® reagent (Promega Inc.) for 15 minutes at room temperature and viability was determined by a luminometer. Curves and EC50 values were generated in GraphPad Prism using a sigmoidal dose response non-linear regression fit.
Cells were grown and distributed into 96-well plates as described in Example 5. Cells in duplicate were incubated with 3-fold serial dilution of a particular immunoconjugate (660, 220, 73.3, 24.4, 8.14, 2.71, 0.91, and 0.3 nM) for 72 hours at 37° C. and 5% CO2. In some experiments, cells were incubated with an immunoconjugate for 96 hours instead of 72 hours (values highlighted with “*”). After treatment, cell viability was determined as described in Example 5.

B1: D10: a lower affinity antibody that binds the same epitope as Ab1 (antibody, V domains shown)
VH: QVQLKESGPGLVAPSQTLSITCTVSGFSLTSYGVHWVRQPPGKGLEWLGVIWAGGFTNYNSALKSRLSISKDNSKSQVLLKMTSLQTDDTAMYYCARRGSSYSMDYWGQGTSVIVSS
VL: EIVLSQSPAITAASLGQKVTITCSASSNVSYIHWYQQRSGTSPRPWIYEISKLASGVPVRFSGSGSGTSYSLTISSMEAEDAAIYYCQQWNYPLITFGSGTKLEIQ
Consider B1, for which the “EC50 of binding to cells” value with ROR1 on Jeko-1 cells is 0.25 µg/mL.

B2: ADC-S: D10 conjugated via MAL-VC-PAB to MMAE (conjugate)
VH: QVQLKESGPGLVAPSQTLSITCTVSGFSLTSYGVHWVRQPPGKGLEWLGVIWAGGFTNYNSALKSRLSISKDNSKSQVLLKMTSLQTDDTAMYYCARRGSSYSMDYWGQGTSVIVSS
VL: EIVLSQSPAITAASLGQKVTITCSASSNVSYIHWYQQRSGTSPRPWIYEISKLASGVPVRFSGSGSGTSYSLTISSMEAEDAAIYYCQQWNYPLITFGSGTKLEIQ
In the case of B2, the EC50 in the series with Mino was 83.3 nM. Further, the “tumor growth / average tumor size (interim results, day 14)” value in the series with Jeko-1 MCL xenograft is listed as “Significant tumor regression”. Also, in the series with ROR1 on Jeko-1 cells, the “EC50 of binding to cells” value was 0.15 µg/mL.
